Assay results as given in patent publication US20260092267.

System: H3K4 histone substrate (histone H3)

SETD7-dCas9 protein (purified from pET-SETD7-dCas9-NLS-6×His)
in vitro H3K4 methylation activity: the SETD7-dCas9 protein was confirmed to have H3K4 methylation activity with H3K4 histone substrate through in vitro analysis
